Source: the Immune Epitope Database (IEDB)

Legend:
HLA-C*14:02 [1] = assay: IEDB peptide-MHC binding, purified MHC/direct/fluorescence; filed as Kd, often an IC50 or EC50 that approximates it; ≥ and ≤ were set here for values at or beyond the usual limits of such assays
HLA-A*02:01 [2] = assay: IEDB peptide-MHC binding, purified MHC/competitive/radioactivity; ≥ and ≤ were set here for values at or beyond the usual limits of such assays
HLA-A*02:01 [3] = assay: IEDB peptide-MHC binding, purified MHC/competitive/radioactivity; filed as Kd, often an IC50 or EC50 that approximates it; ≥ and ≤ were set here for values at or beyond the usual limits of such assays; details: source organism: Homo sapiens
HLA-B*07:02 [4] = assay: IEDB peptide-MHC binding, purified MHC/direct/fluorescence; filed as Kd, often an IC50 or EC50 that approximates it; ≥ and ≤ were set here for values at or beyond the usual limits of such assays
HLA-C*03:03 = assay: as above; details: source organism: Rattus norvegicus
HLA-C*12:03 = assay: as above; details: source organism: Rattus norvegicus
HLA-B*15:17 = assay: IEDB peptide-MHC binding, purified MHC/competitive/fluorescence; filed as Kd, often an IC50 or EC50 that approximates it; ≥ and ≤ were set here for values at or beyond the usual limits of such assays
HLA-B*15:42 = assay: as above; details: source organism: Rattus norvegicus
HLA-B*27:03 = assay: as above; details: source organism: Rattus norvegicus
HLA-B*45:06 = assay: as above; details: source organism: Rattus norvegicus
HLA-B*83:01 = assay: as above; details: source organism: Rattus norvegicus
HLA-C*14:02 [5] = assay: as above; details: source organism: Rattus norvegicus
HLA-B*07:02 [6] = assay: IEDB peptide-MHC binding, purified MHC/competitive/fluorescence; ≥ and ≤ were set here for values at or beyond the usual limits of such assays
HLA-B*08:01 [7] = assay: as above; details: source organism: Zaire ebolavirus
HLA-A*02:01 [8] = assay: as above
HLA-B*15:01 [9] = assay: as above
HLA-A*26:01 [10] = assay: IEDB peptide-MHC binding, purified MHC/direct/fluorescence; filed as Kd, often an IC50 or EC50 that approximates it; ≥ and ≤ were set here for values at or beyond the usual limits of such assays; details: source organism: Giardia lamblia ATCC 50803
HLA-A*26:02 = assay: as above
HLA-A*11:01 [11] = assay: IEDB peptide-MHC binding, purified MHC/competitive/fluorescence; filed as Kd, often an IC50 or EC50 that approximates it; ≥ and ≤ were set here for values at or beyond the usual limits of such assays
HLA-A*31:01 [12] = assay: as above; details: source organism: Dengue virus 2 Thailand/NGS-C/1944
HLA-A*03:01 [13] = assay: IEDB peptide-MHC binding, purified MHC/competitive/fluorescence; ≥ and ≤ were set here for values at or beyond the usual limits of such assays; details: source organism: Variola virus
HLA-A*11:01 [14] = assay: as above; details: source organism: Variola virus
HLA-A*24:02 = assay: as above; details: source organism: Variola virus
HLA-A*30:02 = assay: IEDB peptide-MHC binding, purified MHC/competitive/radioactivity; filed as Kd, often an IC50 or EC50 that approximates it; ≥ and ≤ were set here for values at or beyond the usual limits of such assays; details: source organism: Dengue virus 1 Brazil/97-11/1997
HLA-B*15:01 [15] = assay: as above; details: source organism: Dengue virus 1 Brazil/97-11/1997
HLA-A*02:01 [16] = assay: IEDB peptide-MHC binding, purified MHC/direct/fluorescence; filed as Kd, often an IC50 or EC50 that approximates it; ≥ and ≤ were set here for values at or beyond the usual limits of such assays; details: source organism: Influenza A virus (A/Hong Kong/514/97(H5N1))
HLA-A*03:01 [17] = assay: as above; details: source organism: Influenza A virus (A/Hong Kong/514/97(H5N1))
HLA-A*31:01 [18] = assay: as above; details: source organism: Influenza A virus (A/Hong Kong/514/97(H5N1))
HLA-A*69:01 = assay: as above; details: source organism: Influenza A virus (A/Hong Kong/514/97(H5N1))
HLA-B*08:01 [19] = assay: as above; details: source organism: Influenza A virus H3N2
HLA-B*15:01 [20] = assay: as above; details: source organism: Influenza A virus (A/Hong Kong/514/97(H5N1))
HLA-B*27:05 = assay: as above; details: source organism: Influenza A virus (A/Hong Kong/514/97(H5N1))
HLA-B*40:01 = assay: as above; details: source organism: Influenza A virus (A/Hong Kong/514/97(H5N1))
HLA-B*46:01 = assay: as above
HLA-B*48:01 = assay: as above; details: source organism: Influenza A virus (A/Hong Kong/514/97(H5N1))
HLA-B*57:01 = assay: as above; details: source organism: Influenza A virus (A/Hong Kong/514/97(H5N1))
HLA-B*58:01 = assay: as above; details: source organism: Influenza A virus (A/Hong Kong/514/97(H5N1))
HLA-C*08:02 = assay: as above; details: source organism: Influenza A virus (A/Hong Kong/1074/1999(H9N2))
HLA-B*15:02 = assay: as above; details: source organism: dengue virus type 4
HLA-C*15:02 = assay: as above; details: source organism: dengue virus type 1
HLA-A*26:01 [21] = assay: IEDB peptide-MHC binding, purified MHC/competitive/radioactivity; filed as Kd, often an IC50 or EC50 that approximates it; ≥ and ≤ were set here for values at or beyond the usual limits of such assays; details: source organism: Dengue virus 1 Brazil/97-11/1997
HLA-C*06:02 = assay: IEDB peptide-MHC binding, purified MHC/direct/fluorescence; filed as Kd, often an IC50 or EC50 that approximates it; ≥ and ≤ were set here for values at or beyond the usual limits of such assays; details: source organism: Escherichia coli F11
HLA-C*07:02 = assay: as above; details: source organism: Escherichia coli F11
HLA-A*01:01 = assay: IEDB peptide-MHC binding, purified MHC/competitive/fluorescence; filed as Kd, often an IC50 or EC50 that approximates it; ≥ and ≤ were set here for values at or beyond the usual limits of such assays; details: source organism: Escherichia coli F11
HLA-A*24:03 = assay: as above; details: source organism: Escherichia coli F11
HLA-A*26:01 [22] = assay: as above; details: source organism: Escherichia coli F11
HLA-B*15:01 [23] = assay: as above; details: source organism: Escherichia coli F11
[24] = source organism: Zaire ebolavirus
[25] = source organism: Influenza A virus (A/Hong Kong/514/97(H5N1))
[26] = source organism: Influenza A virus (A/Hong Kong/1074/1999(H9N2))

Sequence AARIAGRHM has a Kd (HLA-C*14:02 [1]; source organism: Mycobacterium tuberculosis variant bovis BCG str. Pasteur 1173P2) of 654 nM.

For ARDPHSGHFV, the IC50 (HLA-A*02:01 [2]; source organism: Homo sapiens) was no less than 20000 nM and the Kd (HLA-A*02:01 [3]) was 2710 nM.

In the case of FLRKNQRAL, the Kd (HLA-B*07:02 [4]; source organism: Mus musculus) is reported as 0.9 nM, the Kd (HLA-C*03:03) is reported as 52 nM and the Kd (HLA-C*12:03) is reported as 383 nM. It also gave a Kd (HLA-B*15:17; source organism: Rattus norvegicus) of no less than 20000 nM, a Kd (HLA-B*15:42) of no less than 5000 nM and a Kd (HLA-B*27:03) of no less than 20000 nM. The Kd (HLA-B*45:06) was no less than 5000 nM, the Kd (HLA-B*83:01) was no less than 5000 nM and the Kd (HLA-C*14:02 [5]) was 12.9 nM.

Work on GGRRTRREA yielded an IC50 (HLA-B*07:02 [6]; [24]) of no less than 120000 nM and an IC50 (HLA-B*08:01 [7]) of no less than 223000 nM.

With GLMHNQDGL the IC50 (HLA-A*02:01 [8]; [24]) was 1580 nM, the IC50 (HLA-B*07:02 [6]; [24]) was no less than 81900 nM and the IC50 (HLA-B*15:01 [9]; [24]) was 51600 nM.

With ITSGHSWAY the Kd (HLA-A*26:01 [10]) was 28 nM and the Kd (HLA-A*26:02; source organism: Giardia lamblia ATCC 50803) was 34 nM.

KTFVDLMRR showed a Kd (HLA-A*11:01 [11]; source organism: Dengue virus 2 Thailand/NGS-C/1944) of 12.3 nM and a Kd (HLA-A*31:01 [12]) of 1.02 nM.

For KVFLPNPAF, the IC50 (HLA-A*02:01 [8]; source organism: Variola virus) was 55100 nM, the IC50 (HLA-A*03:01 [13]) was 64800 nM and the IC50 (HLA-A*11:01 [14]) was 40500 nM. For the same sequence, the IC50 (HLA-A*24:02) was 9770 nM, the IC50 (HLA-B*07:02 [6]; source organism: Variola virus) was no less than 143000 nM and the IC50 (HLA-B*15:01 [9]; source organism: Variola virus) was 21000 nM.

NLYVSLLLL showed an IC50 (HLA-A*02:01 [2]; source organism: Hepatitis B virus subtype ayw) of 77 nM.

QMVSSVTFI gave an IC50 (HLA-A*02:01 [2]; source organism: Rhinovirus A) of 200 nM.

For RPVILSLPR, the IC50 (HLA-A*02:01 [8]; source organism: Variola virus) was no less than 187000 nM, the IC50 (HLA-A*11:01 [14]) was no less than 122000 nM and the IC50 (HLA-B*07:02 [6]; source organism: Variola virus) was 15000 nM.

SLADTNSLAV gave an IC50 (HLA-A*02:01 [2]; source organism: Homo sapiens) of 79.4 nM.

SVKKDLISY gave a Kd (HLA-A*26:02; source organism: dengue virus type 3) of 2 nM, a Kd (HLA-A*30:02) of 26.1 nM and a Kd (HLA-B*15:01 [15]) of 5.96 nM.

Work on VSDGGPNLY yielded a Kd (HLA-A*02:01 [16]) of no less than 20000 nM, a Kd (HLA-A*03:01 [17]) of no less than 20000 nM and a Kd (HLA-A*31:01 [18]) of no less than 20000 nM. For the same sequence, the Kd (HLA-A*69:01) was no less than 20000 nM, the Kd (HLA-B*07:02 [4]; [25]) was no less than 20000 nM and the Kd (HLA-B*08:01 [19]) was no less than 20000 nM. It also gave a Kd (HLA-B*15:01 [20]) of 2990 nM, a Kd (HLA-B*27:05) of no less than 20000 nM and a Kd (HLA-B*40:01) of no less than 20000 nM. It also gave a Kd (HLA-B*46:01; [25]) of no less than 20000 nM, a Kd (HLA-B*48:01) of no less than 20000 nM and a Kd (HLA-B*57:01) of 16700 nM. The Kd (HLA-B*58:01) was 553 nM, the Kd (HLA-C*08:02) was 86 nM and the Kd (HLA-A*11:01 [11]; [26]) was no less than 20000 nM. For the same sequence, the Kd (HLA-B*15:17; [26]) was 192 nM.

For YLAGAGLAF, the Kd (HLA-B*15:02) was 3 nM, the Kd (HLA-B*46:01; source organism: Dengue virus 1 Singapore/S275/1990) was 118 nM and the Kd (HLA-C*14:02 [1]; source organism: dengue virus type 1) was 46 nM. For the same sequence, the Kd (HLA-C*15:02) was no less than 20000 nM and the Kd (HLA-A*26:01 [21]) was 401 nM.

YTLNNGGAF showed a Kd (HLA-C*06:02) of no less than 20000 nM, a Kd (HLA-C*07:02) of 991 nM and a Kd (HLA-A*01:01) of no less than 20000 nM. For the same sequence, the Kd (HLA-A*24:03) was 15.1 nM, the Kd (HLA-A*26:01 [22]) was 92.7 nM and the Kd (HLA-B*15:01 [23]) was 59.4 nM.
